In article PMC8922245, “The Structure of the Arabidopsis PEX4-PEX22 Peroxin Complex—Insights Into Ubiquitination at the Peroxisomal Membrane” (Frontiers in Cell and Developmental Biology, 2022):

T1: Arabidopsis thaliana PEX22 residues 111-283 (soluble PEX4-interacting domain) (Arabidopsis thaliana, UniProt Q9LSX7 111-283)
T1 construct: two N-terminal residues left from the PreScission cleavage site (LEVLFQ|GP); Made on one chain with His6-MBP-PEX4 and separated from it by PreScission cleavage; also called At PEX22; source: purified (Ni-NTA), released with PreScission protease
T1 sequence: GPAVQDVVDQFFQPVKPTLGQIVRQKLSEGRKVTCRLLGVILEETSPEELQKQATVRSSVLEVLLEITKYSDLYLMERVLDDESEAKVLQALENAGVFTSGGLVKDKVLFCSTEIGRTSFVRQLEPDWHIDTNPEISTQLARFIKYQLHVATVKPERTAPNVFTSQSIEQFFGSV


Legend:
[1] = molecular target: Pex22 (Saccharomyces cerevisiae) (UniProt P39718); conditions: cited from earlier work
[2] = molecular target: T1, Arabidopsis thaliana PEX22 residues …; test: pull-down; purified fusion cut with PreScission protease; His6-MBP-PEX4 or His6-MBP-pex4^P123L held on Ni-NTA resin, 1 h at 4°C; washed with buffer A (25 mM HEPES pH 8, 300 mM NaCl, 5% glycerol, 1 mM TCEP), eluted with buffer B (500 mM imidazole); SDS-PAGE and Coomassie staining; conditions: both partners purified
[3] = molecular target: T1, Arabidopsis thaliana PEX22 residues …; test: crystal structure; PEX4-PEX22^111-283 complex from the cleaved fusion, 20 mg/mL in 20 mM Tris pH 7.5, 200 mM NaCl, 1 mM DTT; sitting drop vapor diffusion at 20°C; 100 mM NaCl, 100 mM Bis-Tris Propane pH 9.0, 25% (w/v) PEG 1,500; conditions: both partners purified

Pex22 (Saccharomyces cerevisiae), sequence (P39718 whole entry, the tested form may be a part): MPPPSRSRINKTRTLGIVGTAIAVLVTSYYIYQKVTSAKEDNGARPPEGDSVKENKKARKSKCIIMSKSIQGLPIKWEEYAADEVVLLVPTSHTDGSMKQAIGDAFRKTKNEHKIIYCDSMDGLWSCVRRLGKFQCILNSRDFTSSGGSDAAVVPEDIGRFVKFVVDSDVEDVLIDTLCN
Pex4, sequence (P29340 whole entry): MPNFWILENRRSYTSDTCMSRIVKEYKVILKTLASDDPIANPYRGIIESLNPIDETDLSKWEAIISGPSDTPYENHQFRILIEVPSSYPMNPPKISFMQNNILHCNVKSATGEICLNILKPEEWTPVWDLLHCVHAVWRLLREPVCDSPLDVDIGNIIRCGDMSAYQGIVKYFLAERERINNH

binding result [2]	Molecule	also measured
	Pex4 (from UniProt P29340)	Kd [1]: 2 nM
binds	His6-MBP-PEX4 (Arabidopsis thaliana PEX4, full-length, after PreScission cleavage of the fusion) (enzyme, PEX4 (UBC21), Arabidopsis thaliana, At5g25760, full-length without stop codon; C-terminal residues left from the PreScission cleavage site (LEVLFQ|GP); His6-MBP is joined to PEX4 by a linker with an uncut TEV site (ENLYFQ|S); source: purified (Ni-NTA), cleaved with PreScission protease only; not shown: His6, N-terminal, kept; MBP, N-terminal, kept) MQASRARLFKEYKEVQREKVADPDIQLICDDTNIFKWTALIKGPSETPYEGGVFQLAFSVPEPYPLQPPQVRFLTKIFHPNVHFKTGEICLDILKNAWSPAWTLQSVCRAIIALMAHPEPDSPLNCDSGNLLRSGDVRGFNSMAQMYTRLAAMPKKGLEVLFQ	
binds	His6-MBP-pex4^P123L (pex4-1 protein, after PreScission cleavage of the fusion) (enzyme, Arabidopsis thaliana, PEX4 (UBC21), Arabidopsis thaliana, At5g25760, full-length without stop codon, with the pex4-1 missense change P123L; C-terminal residues left from the PreScission cleavage site (LEVLFQ|GP); pex4-1 is a missense allele isolated in a forward-genetic screen; His6-MBP is joined by a linker with an uncut TEV site (ENLYFQ|S); source: purified (Ni-NTA), cleaved with PreScission protease only; not …) MQASRARLFKEYKEVQREKVADPDIQLICDDTNIFKWTALIKGPSETPYEGGVFQLAFSVPEPYPLQPPQVRFLTKIFHPNVHFKTGEICLDILKNAWSPAWTLQSVCRAIIALMAHPEPDSLLNCDSGNLLRSGDVRGFNSMAQMYTRLAAMPKKGLEVLFQ	
	Arabidopsis thaliana PEX4 (full-length, His6-MBP removed) (enzyme, one residue left after the TEV protease cleavage site (ENLYFQ|S); residue 0 at the N-terminus; PEX4 (UBC21), Arabidopsis thaliana, At5g25760, full-length without stop codon, residues 1-157; six C-terminal residues left from the PreScission cleavage site (LEVLFQ|GP); residues 158-163; Model in PDB 6XOD holds residues 1-154; residue 0, 155-157 and 158-163 were disordered; also called At PEX4; …) SMQASRARLFKEYKEVQREKVADPDIQLICDDTNIFKWTALIKGPSETPYEGGVFQLAFSVPEPYPLQPPQVRFLTKIFHPNVHFKTGEICLDILKNAWSPAWTLQSVCRAIIALMAHPEPDSPLNCDSGNLLRSGDVRGFNSMAQMYTRLAAMPKKGLEVLFQ	binding result [3]: binds
